Publication PMC3124497

How the values were obtained:
[1] = biological target: HIV-1 ADA Env trimer (gp120/gp41) on LAI-chimeric molecular clone virions (HIV-1 isolate ADA | HIV-1 isolate LAI)
[2] = biological target: HIV-1 JR-CSF Env trimer (gp120/gp41) on LAI-chimeric molecular clone virions (HIV-1 isolate JR-CSF | HIV-1 isolate LAI) (UniProt P20871)
[3] = biological target: HIV-1 JR-FL Env trimer (gp120/gp41) on LAI-chimeric molecular clone virions (HIV-1 isolate JR-FL | HIV-1 isolate LAI)
[4] = biological target: HIV-1 ADA Env trimer (gp120/gp41) on LAI-chimeric molecular clone virions (HIV-1 isolate ADA | HIV-1 isolate LAI); experiment: native gel or EMSA; Blue Native PAGE: virions concentrated 100-fold, 1% DDM for 20 min on ice, 4-16% NativePAGE Bis-Tris gel at RT, Western blot with mAb cocktails to gp120 or to gp41; virions untreated or first incubated 1 h at 37-57°C or up to 96 h at 37°C
[5] = biological target: HIV-1 JR2 Env trimer (gp120/gp41) on LAI-chimeric molecular clone virions (HIV-1 isolate JR-FL | HIV-1 isolate LAI); experiment: as above
[6] = biological target: HIV-1 JR-CSF Env trimer (gp120/gp41) on LAI-chimeric molecular clone virions (HIV-1 isolate JR-CSF | HIV-1 isolate LAI) (UniProt P20871); experiment: as above
[7] = biological target: HIV-1 JR-FL Env trimer (gp120/gp41) on LAI-chimeric molecular clone virions (HIV-1 isolate JR-FL | HIV-1 isolate LAI); experiment: as above
[8] = biological target: HIV-1 JR-FL SOS Env trimer (A501C, T605C) on LAI-chimeric molecular clone virions (HIV-1 isolate JR-FL | HIV-1 isolate LAI); experiment: as above

Four-domain soluble human CD4 (receptor)
sCD4 IC50: concentration of 4-domain soluble CD4 required to decrease HIV-1 infectivity by 50% (TZM-bl cells) [1]: 0.17 µg/mL
sCD4 IC50: concentration of 4-domain soluble CD4 required to decrease HIV-1 infectivity by 50% (TZM-bl cells) [2]: 1.1 µg/mL
sCD4 IC50: concentration of 4-domain soluble CD4 required to decrease HIV-1 infectivity by 50% (TZM-bl cells) [3]: 1.2 µg/mL

HIV-1 ADA Env trimer (gp120/gp41) on LAI-chimeric molecular clone virions (complex)
stoichiometry N [4]: 3

HIV-1 JR2 Env trimer (gp120/gp41) on LAI-chimeric molecular clone virions (complex)
stoichiometry N [5]: 3

HIV-1 JR-CSF Env trimer (gp120/gp41) on LAI-chimeric molecular clone virions (from UniProt P20871 32-503) (complex)
stoichiometry N [6]: 3

HIV-1 JR-FL Env trimer (gp120/gp41) on LAI-chimeric molecular clone virions (complex)
stoichiometry N [7]: 3

HIV-1 JR-FL SOS Env trimer (A501C, T605C) on LAI-chimeric molecular clone virions (complex)
stoichiometry N [8]: 3
